Data set [1] deals with T1, RAD52 wild type (human, UniProt P43351 1-418).
T1 sequence: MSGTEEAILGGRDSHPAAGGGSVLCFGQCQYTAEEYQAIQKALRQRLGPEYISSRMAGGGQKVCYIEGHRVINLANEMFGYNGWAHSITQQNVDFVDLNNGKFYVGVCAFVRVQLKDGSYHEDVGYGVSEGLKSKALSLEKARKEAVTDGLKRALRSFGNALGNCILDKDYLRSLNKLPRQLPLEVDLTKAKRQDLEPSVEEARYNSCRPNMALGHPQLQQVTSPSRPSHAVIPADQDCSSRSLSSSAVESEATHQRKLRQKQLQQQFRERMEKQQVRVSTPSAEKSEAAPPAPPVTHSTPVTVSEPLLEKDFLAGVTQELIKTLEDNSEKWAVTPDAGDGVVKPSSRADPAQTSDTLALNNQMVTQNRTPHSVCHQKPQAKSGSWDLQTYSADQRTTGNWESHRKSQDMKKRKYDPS
In words: mass photometry.

The target of another data set is T2, RAD52 IBD (human, UniProt P43351 1-418, K152A;R153A).
T2 sequence: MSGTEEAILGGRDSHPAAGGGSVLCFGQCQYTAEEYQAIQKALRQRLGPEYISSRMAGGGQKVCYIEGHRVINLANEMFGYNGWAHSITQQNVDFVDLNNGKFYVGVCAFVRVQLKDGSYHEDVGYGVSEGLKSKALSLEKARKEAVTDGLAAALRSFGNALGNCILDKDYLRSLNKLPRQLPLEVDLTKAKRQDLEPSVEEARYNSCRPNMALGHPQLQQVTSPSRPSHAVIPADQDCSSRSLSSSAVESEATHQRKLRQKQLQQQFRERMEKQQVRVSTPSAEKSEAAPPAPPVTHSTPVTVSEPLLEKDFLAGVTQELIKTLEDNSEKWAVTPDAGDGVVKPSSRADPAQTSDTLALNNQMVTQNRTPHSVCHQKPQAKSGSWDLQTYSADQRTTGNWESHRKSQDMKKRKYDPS
In words: mass photometry.

For a further data set, the target named is T3, SMARCAL1 (UniProt Q9NZC9 1-954).
T3 sequence: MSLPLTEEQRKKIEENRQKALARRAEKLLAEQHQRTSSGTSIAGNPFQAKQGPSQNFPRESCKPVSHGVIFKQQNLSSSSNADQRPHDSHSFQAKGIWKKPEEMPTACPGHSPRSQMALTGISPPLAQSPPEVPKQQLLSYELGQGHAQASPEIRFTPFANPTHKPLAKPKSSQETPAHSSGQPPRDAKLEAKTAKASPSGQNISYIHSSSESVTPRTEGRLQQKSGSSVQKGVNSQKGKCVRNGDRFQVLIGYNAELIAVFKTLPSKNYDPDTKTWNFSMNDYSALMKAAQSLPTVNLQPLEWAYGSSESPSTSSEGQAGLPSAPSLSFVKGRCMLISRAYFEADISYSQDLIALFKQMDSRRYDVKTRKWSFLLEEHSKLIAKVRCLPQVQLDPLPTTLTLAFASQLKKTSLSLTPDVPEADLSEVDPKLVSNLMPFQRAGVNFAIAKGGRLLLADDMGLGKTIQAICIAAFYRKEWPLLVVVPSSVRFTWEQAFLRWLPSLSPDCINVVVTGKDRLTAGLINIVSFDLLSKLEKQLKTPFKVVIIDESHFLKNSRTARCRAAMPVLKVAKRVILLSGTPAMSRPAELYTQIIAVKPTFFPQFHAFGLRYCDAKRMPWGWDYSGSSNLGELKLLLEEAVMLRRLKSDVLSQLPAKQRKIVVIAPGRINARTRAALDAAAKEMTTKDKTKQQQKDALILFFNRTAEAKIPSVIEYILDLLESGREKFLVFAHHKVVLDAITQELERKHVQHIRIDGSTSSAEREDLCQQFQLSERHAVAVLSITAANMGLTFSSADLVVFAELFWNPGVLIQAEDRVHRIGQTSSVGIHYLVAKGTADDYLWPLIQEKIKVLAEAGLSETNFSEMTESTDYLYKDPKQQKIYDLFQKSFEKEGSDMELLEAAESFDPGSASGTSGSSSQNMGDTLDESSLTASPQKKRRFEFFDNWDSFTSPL
In words: mass photometry.

The next data set addresses RAD52 wild type;RPA (human;human?, UniProt P43351;P27694;P15927;P35244 1-418;1-616;1-270;1-121, |). In words: mass photometry.
A further data set addresses T4, RAD52 wild type;SMARCAL1 (human;human?, UniProt P43351;Q9NZC9 1-418;1-954, |).
T4 sequence 1: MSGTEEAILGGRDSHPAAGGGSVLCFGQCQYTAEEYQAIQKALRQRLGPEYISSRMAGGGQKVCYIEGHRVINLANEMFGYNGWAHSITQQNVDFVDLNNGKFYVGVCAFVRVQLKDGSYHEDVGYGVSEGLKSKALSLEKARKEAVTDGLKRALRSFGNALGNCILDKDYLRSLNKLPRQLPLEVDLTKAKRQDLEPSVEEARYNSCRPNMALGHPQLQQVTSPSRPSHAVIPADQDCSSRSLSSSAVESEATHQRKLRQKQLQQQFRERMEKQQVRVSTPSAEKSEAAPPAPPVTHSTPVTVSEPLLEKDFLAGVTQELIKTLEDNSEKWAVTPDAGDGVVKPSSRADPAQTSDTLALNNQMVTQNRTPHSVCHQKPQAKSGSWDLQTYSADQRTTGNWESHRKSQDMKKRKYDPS
T4 sequence 2: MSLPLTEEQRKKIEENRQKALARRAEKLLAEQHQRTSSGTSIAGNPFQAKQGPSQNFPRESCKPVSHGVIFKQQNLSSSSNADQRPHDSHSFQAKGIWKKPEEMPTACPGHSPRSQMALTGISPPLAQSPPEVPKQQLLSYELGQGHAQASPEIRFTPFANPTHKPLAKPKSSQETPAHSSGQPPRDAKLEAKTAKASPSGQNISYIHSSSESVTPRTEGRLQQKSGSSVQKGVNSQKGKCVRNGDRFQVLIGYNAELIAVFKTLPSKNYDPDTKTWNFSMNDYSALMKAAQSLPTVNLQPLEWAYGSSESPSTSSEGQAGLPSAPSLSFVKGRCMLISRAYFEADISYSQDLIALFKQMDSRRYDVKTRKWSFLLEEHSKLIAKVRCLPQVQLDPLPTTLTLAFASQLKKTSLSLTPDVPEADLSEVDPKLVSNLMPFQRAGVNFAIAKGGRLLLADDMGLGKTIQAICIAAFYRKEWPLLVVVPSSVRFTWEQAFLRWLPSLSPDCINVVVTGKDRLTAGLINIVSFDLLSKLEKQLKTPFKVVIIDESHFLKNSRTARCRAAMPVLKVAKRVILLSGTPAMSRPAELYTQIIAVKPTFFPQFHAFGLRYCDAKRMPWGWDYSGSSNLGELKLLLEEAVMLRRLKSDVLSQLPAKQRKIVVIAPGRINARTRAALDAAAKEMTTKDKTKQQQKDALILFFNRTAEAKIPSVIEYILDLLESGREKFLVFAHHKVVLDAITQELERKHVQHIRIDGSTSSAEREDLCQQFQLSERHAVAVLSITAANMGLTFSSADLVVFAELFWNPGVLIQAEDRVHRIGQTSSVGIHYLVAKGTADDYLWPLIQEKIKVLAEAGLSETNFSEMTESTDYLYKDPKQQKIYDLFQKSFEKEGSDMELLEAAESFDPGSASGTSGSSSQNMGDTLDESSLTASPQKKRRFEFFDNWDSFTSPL
In words: mass photometry.

In the next data set the target is RPA (UniProt P27694;P15927;P35244 1-616;1-270;1-121). Put plainly: mass photometry.
Chain of RPA (P27694 whole entry, chain 1 of 3): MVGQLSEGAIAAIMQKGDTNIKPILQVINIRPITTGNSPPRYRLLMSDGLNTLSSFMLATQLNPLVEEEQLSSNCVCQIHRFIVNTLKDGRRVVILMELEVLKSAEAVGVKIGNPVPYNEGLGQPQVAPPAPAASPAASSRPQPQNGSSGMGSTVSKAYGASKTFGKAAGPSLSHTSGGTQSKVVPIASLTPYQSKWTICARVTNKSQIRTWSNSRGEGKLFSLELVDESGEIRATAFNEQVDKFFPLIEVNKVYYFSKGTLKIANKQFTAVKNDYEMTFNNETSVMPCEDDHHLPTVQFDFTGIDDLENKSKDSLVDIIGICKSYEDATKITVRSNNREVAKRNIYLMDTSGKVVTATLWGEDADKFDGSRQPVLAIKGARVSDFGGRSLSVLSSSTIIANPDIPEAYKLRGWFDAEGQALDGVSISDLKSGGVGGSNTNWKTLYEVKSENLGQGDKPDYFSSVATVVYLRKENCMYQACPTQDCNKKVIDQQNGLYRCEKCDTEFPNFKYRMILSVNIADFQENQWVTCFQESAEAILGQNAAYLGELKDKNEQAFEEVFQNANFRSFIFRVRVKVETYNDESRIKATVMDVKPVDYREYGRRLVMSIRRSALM
Chain of RPA (P15927 whole entry, chain 2 of 3): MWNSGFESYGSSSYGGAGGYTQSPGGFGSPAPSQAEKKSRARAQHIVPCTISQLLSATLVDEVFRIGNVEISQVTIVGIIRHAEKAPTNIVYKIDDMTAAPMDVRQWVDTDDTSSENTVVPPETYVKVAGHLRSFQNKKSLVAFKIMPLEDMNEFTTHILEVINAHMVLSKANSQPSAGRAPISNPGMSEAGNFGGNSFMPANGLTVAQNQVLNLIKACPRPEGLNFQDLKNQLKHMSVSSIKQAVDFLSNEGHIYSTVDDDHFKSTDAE
Chain of RPA (P35244 whole entry, chain 3 of 3): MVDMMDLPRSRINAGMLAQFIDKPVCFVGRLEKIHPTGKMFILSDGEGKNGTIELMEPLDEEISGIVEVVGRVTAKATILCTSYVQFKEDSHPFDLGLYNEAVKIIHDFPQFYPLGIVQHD
Data set [2] concerns the target T1, RAD52 wild type. Put plainly: P1 nuclease footprinting.
For data set [3], the target named is T1, RAD52 wild type. Put plainly: P1 nuclease footprinting. The source holds these as a separate data set.
The data set “mass photometry” deals with the molecule itself. In words: mass photometry.

This is an account of results in publication doi:10.1101/2023.11.14.566657 (bioRxiv, 2023).

Chain of RAD52 wild type;RPA (P27694 whole entry, chain 2 of 3): as the sequence (P27694 whole entry, chain 1 of 3) above
Chain of RAD52 wild type;RPA (P15927 whole entry, chain 3 of 3): as the sequence (P15927 whole entry, chain 2 of 3) above
Chain of RAD52 wild type;RPA (P35244 whole entry, chain 4 of 3): as the sequence (P35244 whole entry, chain 3 of 3) above

B1: heterologous fork, 30 nt gap (#6/#2/#3/#4) (mixed)
DNA 1: GGTATATTCAACAGTTCAACGACGAATGTTTTTTTTTTTTTTTTTTTTTTTTTTTTTTCTTTTGAGGCAGGCATGGTAGC
DNA 2: GCTACCATGCCTGCCTCAAAAGTTCGTAATATGCTACACACTGGAGTACCGGCATTCGTCGTTGAACTGTTGAATATACC
DNA 3: GGTACTCCAGTGTGTAGCATATTACGAACTTTTGAGGCAGGCATGGTAGC
DNA 4: GCTACCATGCCTGCCTCAAAAG
Take B1: the binding result in the data set with RAD52 wild type [1], in the data set with RAD52 IBD, with SMARCAL1, in the data set with RAD52 wild type;RPA, in the data set with RAD52 wild type;SMARCAL1 and with RPA was “binds” in each case.

B2: homologous fork, 30 nt leading gap (#1/#2/#3/#4) (mixed)
DNA 1: GGTATATTCAACAGTTCAACGACGAATGTTGGTACTCCAGTGTGTAGCATATTACGAACTTTTGAGGCAGGCATGGTAGC
DNA 2: GCTACCATGCCTGCCTCAAAAGTTCGTAATATGCTACACACTGGAGTACCGGCATTCGTCGTTGAACTGTTGAATATACC
DNA 3: GGTACTCCAGTGTGTAGCATATTACGAACTTTTGAGGCAGGCATGGTAGC
DNA 4: GCTACCATGCCTGCCTCAAAAG
On to B2, for which the binding result with RAD52 wild type [2] is listed as “binds”.

B3: heterologous fork P1 assay (#5/#2/#3/#4) (mixed)
DNA 1: GGTATATTCAACAGTTCAACGACGAATGTTGTGCATAACGTCGCTCCGTAGCTATACGCTTTTGAGGCAGGCATGGTAGC
DNA 2: GCTACCATGCCTGCCTCAAAAGTTCGTAATATGCTACACACTGGAGTACCGGCATTCGTCGTTGAACTGTTGAATATACC
DNA 3: GGTACTCCAGTGTGTAGCATATTACGAACTTTTGAGGCAGGCATGGTAGC
DNA 4: GCTACCATGCCTGCCTCAAAAG
As for B3, the binding result with RAD52 wild type [3] is “binds”.

B4: 6xHis-tagged human RAD52 protein (wild type) (natural protein)
chain: MSGTEEAILGGRDSHPAAGGGSVLCFGQCQYTAEEYQAIQKALRQRLGPEYISSRMAGGGQKVCYIEGHRVINLANEMFGYNGWAHSITQQNVDFVDLNNGKFYVGVCAFVRVQLKDGSYHEDVGYGVSEGLKSKALSLEKARKEAVTDGLKRALRSFGNALGNCILDKDYLRSLNKLPRQLPLEVDLTKAKRQDLEPSVEEARYNSCRPNMALGHPQLQQVTSPSRPSHAVIPADQDCSSRSLSSSAVESEATHQRKLRQKQLQQQFRERMEKQQVRVSTPSAEKSEAAPPAPPVTHSTPVTVSEPLLEKDFLAGVTQELIKTLEDNSEKWAVTPDAGDGVVKPSSRADPAQTSDTLALNNQMVTQNRTPHSVCHQKPQAKSGSWDLQTYSADQRTTGNWESHRKSQDMKKRKYDPS
Usually stoichiometry N stands for a count of units in the complex or per binding partner. Take B4: the “stoichiometry N” value in “mass photometry” came out at 10.
